According to patent US6713294B1, “DNA glycosylases and their use” (priority 1996, dated 2004):

Tests used:
[1] = tested on: [^3H]cytosine-labelled DNA; test: Release of [3H]cytosine from ds or ss labelled DNA; type: biochemical; conditions: for C-ds, pmol excised per min per mg protein: double-stranded cytosine DNA; for C-ds, pmol excised per min per mg protein / C-ss, pmol excised per min per mg protein: 6.5 μM, 10 min, 0 = below detection limit; for C-ss, pmol excised per min per mg protein: single-stranded cytosine DNA
Method: (§1) To test enzymatic substrate specificities, 250 ng purified human “wild type” UDG (UNGΔ84), UNGΔ84Tyr147Ala or UNGΔ84Asn204Asp, were mixed with 200 ng ds- or ss-[^3H]cytosine-labelled DNA (150 mCi/mmol), or ds- or ss-[^3H]thymine-labelled DNA (100 mCi/mmol) in 10 mM NaCl, 20 mM Tris-HCl (pH 7.5), 1 mM EDTA, 1 mM dithiothreitol and 0.5 mg/ml bovine serum albumin (final concentrations) in 20 μl separate reactions. The final concentrations of the [^3H]cytosine-DNA (C) and [^3H]thymine-DNA (T) substrates were 6.5 μM and 10 μM, respectively. Release of radioactivity as a function of time was measured at 37° C. These conditions are later referred to as standard conditions. Substrate synthesis and processing of samples for scintillation counting were as described in Krokan and Wittwer (1981) Nucl. Acids Res., 9: 2599-2613. Single-stranded substrate was generated by boiling double-stranded substrate for 10 min, followed by rapid cooling on ice.
(§2) For measuring release of uracil from double-stranded (U-ds) or single-stranded (U-ss) DNA the various mutant enzymes (prepared as described in Example 1 and by analogous site-directed mutagenesis methods and identical expression and purification methods) were incubated with 200 ng ds- or ss-[^3H]dUMP-labelled DNA (500 mCi/mmol, 2 μM final concentration) in 20 μl separate reactions for 10 min under standard conditions as described in Example 1. For measuring release of [^3H]cytosine or [^3H]thymine, assays were performed as described in Example 1 using an incubation time of 10 min. Uracil inhibition was analysed by adding 5 mM uracil (final concentration) to a standard U-ds assay. 0 activity indicates activity below detection limit (10 pmol per mg protein per min) with 100 ng enzyme and 200 ng DNA substrate at standard conditions.

[^3H]dUMP-labelled DNA [2] = Kinetic parameters on uracil substrate; type: biochemical; conditions: for Kcat: calculated from Vmax assuming Mr=25000
Method: The final concentrations of the [^3H]cytosine-DNA (C) and [^3H]thymine-DNA (T) substrates were 6.5 μM and 10 μM, respectively. Release of radioactivity as a function of time was measured at 37° C. These conditions are later referred to as standard conditions. Substrate synthesis and processing of samples for scintillation counting were as described in Krokan and Wittwer (1981) Nucl. Acids Res., 9: 2599-2613. Single-stranded substrate was generated by boiling double-stranded substrate for 10 min, followed by rapid cooling on ice.
(§3) The kinetic parameters were determined using six different substrate concentrations to obtain the Km and Vmax values. Duplicate samples were incubated for 20 min using standard assay buffer conditions and substrates as specified. Km and Vmax were calculated using the computer program Enzpack, version 3.0 after the method of Wilkinson (1961) Biochem. J., 80: 324-332.

[3] = tested on: E. coli ung^+ strain (NR8051); test: Frequency of rifampicin resistant mutations, ung+ strain; type: cell-based
Method: An overnight culture of E. coli strains NR8051 and NR8052 (both recA^+, provided by Tomas Kunkel of National Institute of Environmental Health, USA) containing plasmids pTrc99A, pTUNGΔ84, UNGΔ84Tyr147Ala and UNGΔ84Asn204Asp were prepared as described in Example 1 and grown in LB-medium with ampicillin (100 μg/ml) at 30° C. The culture was then diluted 1:20 in fresh medium and cultured for 5 hours at 37° C. Induced culture contained 1 mM IPTG in the LB-medium. To determine the number of rifampicin resistant bacteria, 100 μl of the culture were mixed with 3 ml top agarose and poured on LB plates containing 100 μg/ml rifampicin and incubated overnight at 37° C. Colonies were counted and the number of rifampicin resistant colonies per 10^8 viable cells was calculated.

[4] = tested on: [^3H]thymine-labelled DNA; test: Release of [3H]thymine from ds or ss labelled DNA; type: biochemical; conditions: for T-ds, pmol excised per min per mg protein: double-stranded thymine DNA; for T-ds, pmol excised per min per mg protein / T-ss, pmol excised per min per mg protein: 10 μM, 10 min, 0 = below detection limit; for T-ss, pmol excised per min per mg protein: single-stranded thymine DNA
Method: as §1, §2

[^3H]dUMP-labelled DNA [5] = Uracil inhibition in standard U-ds assay; type: biochemical; conditions: 5 mM uracil added to standard U-ds assay
Method: as §2

[6] = tested on: Escherichia coli recA^+ host cells (NR8051 and NR8052); test: Survival of E. coli host cells expressing CDG or TDG; type: cell-based; conditions: for Survival of host cells after induction by IPTG: both NR8051 and NR8052, within 5 hrs; for Survival of recA^+ host cells carrying uninduced plasmid: data not shown
[^3H]dUMP-labelled DNA [7] = Release of uracil from ds or ss [3H]dUMP-labelled DNA; type: biochemical; conditions: for U-ds, pmol excised per min per mg protein: double-stranded uracil DNA, 0 = below detection limit (10 pmol per mg protein per min); for U-ds, pmol excised per min per mg protein / U-ss, pmol excised per min per mg protein: 2 μM, 10 min, 37° C.; for U-ss, pmol excised per min per mg protein: single-stranded uracil DNA, 0 = below detection limit
Method: as §1, §2

[8] = tested on: Escherichia coli DH5α (recA^−); test: Cytotoxicity in recA- background; type: cell-based; conditions: E. coli DH5α, even without induction; data not shown
[9] = tested on: [^3H]cytosine-labelled DNA; test: Kinetic parameters on cytosine substrate; type: biochemical; conditions: for Kcat: calculated from Vmax assuming Mr=25000
Method: as §1, §3

[10] = tested on: [^3H]thymine-labelled DNA; test: Kinetic parameters on thymine substrate; type: biochemical; conditions: for Kcat: calculated from Vmax assuming Mr=25000
Method: as §1, §3

Molecule | C-ds, pmol excised per min per mg protein [1] | Km ([^3H]dUMP-labelled DNA [2]; U-ds substrate) | Kcat ([^3H]dUMP-labelled DNA [2]; U-ds substrate) | Km ([^3H]dUMP-labelled DNA [2]; U-ss substrate) | Kcat ([^3H]dUMP-labelled DNA [2]; U-ss substrate) | Factor of increase of mutation frequency compared to host cells carrying parental plasmid pTrc99A ([3]; E. coli ung^+ cells, uninduced) | Factor of increase of mutation frequency compared to host cells carrying parental plasmid pTrc99A ([3]; induced ung^+ cells) | T-ds, pmol excised per min per mg protein [4] | T-ss, pmol excised per min per mg protein [4] | Inhibition 5 mM Uracil ([^3H]dUMP-labelled DNA [5]) | Survival of host cells after induction by IPTG [6] | Survival of recA^+ host cells carrying uninduced plasmid [6] | U-ds, pmol excised per min per mg protein ([^3H]dUMP-labelled DNA [7]) | U-ss, pmol excised per min per mg protein ([^3H]dUMP-labelled DNA [7]) | Cytotoxicity in recA^− background [8] | C-ss, pmol excised per min per mg protein [1] | other results
Asn204Asp: human UDG mutant, codon 204 Asn changed to Asp; cytosine-DNA glycosylase (CDG) (protein) MGVFCLGPWGLGRKLRTPGKGPLQLLSRLCGDHLQAIPAKKAPAGQEEPGTPPSSPLSAEQLDRIQRNKAAALLRLAARNVPVGFGESWKKHLSGEFGKPYFIKLMGFVAEERKHYTVYPPPHQVFTWTQMCDIKDVKVVILGQDPYHGPNQAHGLCFSVQRPVPPPPSLENIYKELSTDIEDFVHPGHGDLSGWAKQGVLLLDAVLTVRAHQANSHKERGWEQFTDAVVSWLNQNSNGLVFLLWGSYAQKKGSAIDRKRHHVLQTAHPSPLSVYRGFFGCRHFSKTNELLQKSGKKPIDWKEL | 3.0 × 10^2 pmol excised per min per mg protein | 2.4 µM | 0.02 s⁻¹ | 2 µM | 0.25 s⁻¹ | 8.6 | approximately 8.9 | 0 pmol excised per min per mg protein | 0 pmol excised per min per mg protein | 0% | less than 50% | equal to that of the parental cell carrying plasmid pTrc99A | 1.7 × 10^4 pmol excised per min per mg protein | 1.6 × 10^5 pmol excised per min per mg protein | highly cytotoxic |  | Preference for single stranded substrate ([1]; ss versus ds substrate): 10 fold; UDG activity remaining compared with wild type ([^3H]dUMP-labelled DNA [7]; uracil release, ds and ss): 0.04-0.16%; Km ([9]; C-ds substrate): 35 µM; Kcat ([9]; C-ds substrate): 0.002 s⁻¹; Km ([9]; C-ss substrate): 5.3 µM; Kcat ([9]; C-ss substrate): 0.0065 s⁻¹
Asn204Gln: human UDG (UNGΔ84) mutant with Asn204 replaced by Gln (protein) MGVFCLGPWGLGRKLRTPGKGPLQLLSRLCGDHLQAIPAKKAPAGQEEPGTPPSSPLSAEQLDRIQRNKAAALLRLAARNVPVGFGESWKKHLSGEFGKPYFIKLMGFVAEERKHYTVYPPPHQVFTWTQMCDIKDVKVVILGQDPYHGPNQAHGLCFSVQRPVPPPPSLENIYKELSTDIEDFVHPGHGDLSGWAKQGVLLLQAVLTVRAHQANSHKERGWEQFTDAVVSWLNQNSNGLVFLLWGSYAQKKGSAIDRKRHHVLQTAHPSPLSVYRGFFGCRHFSKTNELLQKSGKKPIDWKEL | 0 pmol excised per min per mg protein | 0.4 µM | 1.1 s⁻¹ | 0.23 µM | 1.48 s⁻¹ |  |  | 0 pmol excised per min per mg protein | 0 pmol excised per min per mg protein | 70% |  |  | 1.5 × 10^6 pmol excised per min per mg protein | 2.2 × 10^6 pmol excised per min per mg protein |  | 0 pmol excised per min per mg protein | 
Tyr147Ala (protein) MGVFCLGPWGLGRKLRTPGKGPLQLLSRLCGDHLQAIPAKKAPAGQEEPGTPPSSPLSAEQLDRIQRNKAAALLRLAARNVPVGFGESWKKHLSGEFGKPYFIKLMGFVAEERKHYTVYPPPHQVFTWTQMCDIKDVKVVILGQDPAHGPNQAHGLCFSVQRPVPPPPSLENIYKELSTDIEDFVHPGHGDLSGWAKQGVLLLNAVLTVRAHQANSHKERGWEQFTDAVVSWLNQNSNGLVFLLWGSYAQKKGSAIDRKRHHVLQTAHPSPLSVYRGFFGCRHFSKTNELLQKSGKKPIDWKEL | 0 pmol excised per min per mg protein | 3.5 µM | 0.0167 s⁻¹ | 0.3 µM | 0.01 s⁻¹ | 39 | ~94.4 | 1.3 × 10^3 pmol excised per min per mg protein | 7.5 × 10^2 pmol excised per min per mg protein | 0% | < 10% | equal to that of the parental cell carrying plasmid pTrc99A | 2.2 × 10^4 pmol excised per min per mg protein | 2.2 × 10^4 pmol excised per min per mg protein | highly cytotoxic | 0 pmol excised per min per mg protein | Km ([10]; T-ds substrate): 6 µM; Kcat ([10]; T-ds substrate): 0.001 s⁻¹; Km ([10]; T-ss substrate): 1.4 µM; Kcat ([10]; T-ss substrate): 0.00033 s⁻¹; Mutation frequency in vivo relative to CDG activity ([3]; Escherichia coli): 10 fold; Preference for single stranded substrate ([4]; ss versus ds substrate): decreased preference
